Earlier results on two substances are cited in article PMC7294136.

As a reminder, the Kd is a measure of binding affinity in units of concentration.

Series [1] has as its target RAGE V domain (Homo sapiens) (UniProt Q15109).
The target in a further series is RAGE (Homo sapiens) (UniProt Q15109). The series is described as follows: SPR. On the technique in general: SPR reads the build-up and loss of mass on a sensor chip optically.

Take S100B (from UniProt P04271): the Kd in series [1] was 500 nM.
With S100A4 (from UniProt P26447), the Kd with RAGE (Homo sapiens) is 138 nM.
